Data taken from the supplement of paper PMC12042874.
± gives the uncertainty stated by the source.

Test: amyloid nucleation score (Sup35N fusion, yeast selection) (log enrichment); library NNK1; higher = more nucleation; inactive = no reads after selection
How it was run: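 For the nucleation score, DiMSum gave the log enrichment of output over input reads, centred on the mode score of non-aggregating sequences. Psi-negative yeast expressing Sup35N fused to peptides of 20 random codons were induced with 100 μM copper sulfate for 24 hours and grown 7 days at 30°C on medium lacking adenine and uracil. Input and output plasmid inserts were Illumina-sequenced, and sequences with under 100 input reads were excluded.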

Point of comparison: RTCVIVKMNSTIALYLGQKE, amyloid nucleation score 2.52 ± 0.12. Against it:
- RRVSLH — lower, 0.416 ± 0.6
- RRWYTSHLLWGRNISAGDIL — lower, -0.221 ± 0.44
- RRYRVLANISS — lower, 0.66 ± 0.49
- RRYWVIIIEVAGSRSVETPV — lower, -0.823 ± 0.51
- RSASAREHNTALRSRPARVG — lower, -0.353 ± 1.7
- RSCLQGFGIFAMAIMD — lower, 0.367 ± 0.79
- RSDWFHMCNNT — within error, 2.38 ± 0.089
- RSEELYGQDVQEKSAGPRVS — lower, -0.089 ± 1.2
- RSEGKNMADS — lower, -0.46 ± 1.1
- RSFTCVMDRSDVEVGQCLGS — lower, -0.6 ± 0.77
- RSFVLLGFPSY — lower, -0.882 ± 0.66
- RSGNVAQEMSMHPTWYEWS — lower, 0.954 ± 0.31
- RSHAIHVYKQLCHRVVFIWL — lower, 1.39 ± 0.46
- RSIMWNLFHDF — lower, 0.789 ± 0.51
- RSIRSIESNYYLRNVTFISR — lower, 1.09 ± 0.31
- RSLFLDCS — lower, -0.475 ± 0.91
- RSLKMINNYISKLHVLMGFH — lower, -0.281 ± 0.76
- RSLNPVISFLN — lower, -0.329 ± 0.69
- RSMACVRLFDFQSQLYFRVF — lower, -0.186 ± 0.77
- RSNCWFEV — lower, 0.035 ± 0.4
- RSNEIVEFGSPWYKMTKGMR — lower, 0.44 ± 0.31
- RSNTRCAFKNFIFSMTCAFK — lower, 0.823 ± 0.5
- RSQCQAGCELYGFA — lower, -0.303 ± 0.78
- RSQPLGADVVKLPASRLGRL — lower, -1.11 ± 0.94
- RSRLPGCDFVPLYEVH — lower, -0.472 ± 0.44
- RSSCVELGWIGWRARTNR — lower, 0.407 ± 0.57
- RSVFEKNWVGCITEMTIWFA — lower, -0.47 ± 0.73
- RSYCKRALMLDWFAISRMRL — lower, 0.082 ± 0.51
- RTDFLMFIGCVMNKICTLKA — lower, 0.73 ± 0.33
- RTFFRFKMSPWCINDYIMMR — lower, 0.222 ± 1.2
- RTGLY — lower, 0.108 ± 0.33
- RTIGFTEELP — lower, -0.577 ± 0.96
- RTIIDESVTAFLIWFCYVTV — lower, -0.21 ± 0.26
- RTMEYAPGCLVAFDYK — lower, 0.24 ± 0.44
- RTMKRSLSCVHCLLCLSPCQ — lower, -0.102 ± 0.29
- RTNSWAESHRSHCVCATSCG — lower, -0.743 ± 0.6
- RTPVLSCWWFEYMELRGQST — lower, -0.412 ± 1.7
- RTSVLVSASALPNSLSFRQG — lower, -0.647 ± 1.1
- RVCMLLYCQVKVGTVN — within error, 2.3 ± 0.11
- RVEFHGIR — lower, 1.62 ± 0.32
- RVFLTSLEDRVHTLGQATNT — lower, 1.39 ± 0.5
- RVHQGLFDGNKAYQTGIHWN — lower, 0.041 ± 0.25
- RVIILMFTHRTCNS — lower, -1.07 ± 2.7
- RVMVSGNAPSFVLNGGVSVR — lower, 0.874 ± 0.62
- RVNFSDTYTSSGGFALGMST — lower, 0.43 ± 0.3
- RVSKYQYCIMYWRYRAI — lower, 0.442 ± 0.56
- RVVLGTGDLVSCRFIFSLEK — lower, -1.25 ± 0.44
- RWTEKGK — lower, -0.332 ± 1.9
- RYDSVFVIS — lower, -0.129 ± 1.2
- RYGVGLCAYMFFSCVDFRSG — lower, 1.65 ± 0.4
- RYLYVPALPFNFLCL — lower, 1.63 ± 0.1
- RYRRFCFALVYMRKNI — lower, -0.184 ± 0.42
- RYTFQFNYV — lower, 0.224 ± 0.38
- RYVLFALWWYKVGAEIYNKV — lower, 0.48 ± 0.69
- RYWYMTGMAMLNK — lower, 0.58 ± 0.84
- SACALSYYCGWISRCSYLCP — lower, -0.158 ± 0.63
- SACGVIRRLSAGYNCFYVK — lower, 0.229 ± 0.51
- SAGGHSLSVTYWSGCSLRTV — lower, 0.272 ± 0.23
- SAGSVADRGCLFSLRRASKC — lower, 0.851 ± 0.78
- SAHITDVLHKMWRNNTTTWY — lower, 1.15 ± 0.55
- SAICRYVF — lower, 0.768 ± 0.66
- SAKGIME — lower, 1.03 ± 0.45
- SALRTCKFN — lower, 0.826 ± 0.56
- SALYNAGCKLCLFTS — lower, 0.004 ± 1.1
- SAQSTILICLHKGLDMSERH — higher, 5.8 ± 0.077
- SASEIPALSTTGSNGMDEVI — lower, -0.249 ± 0.54
- SASPLVAMDNVGCA — lower, -0.748 ± 0.37
- SAVINFLRSQKLLNCGMGVT — lower, -0.529 ± 1.7
- SAWKDAYFRVDVNEDFVS — lower, 0.154 ± 0.32
- SCAAILEDVVHSAHILYLSH — lower, -0.92 ± 0.96
- SCARFITTNNQDSRLVASSN — lower, -0.718 ± 0.77
- SCATVPCKM — lower, 0.53 ± 0.63
- SCKCLTSTGGGSGDRKGWNG — lower, 0.916 ± 0.55
- SCLKSDVYVCCEDLRRLDCV — lower, -0.453 ± 0.38
- SCLNNKSPSLI — lower, -0.342 ± 0.25
- SCMTLLRFKRMEDLK — within error, 2.45 ± 0.19
- SCNDTI — lower, -0.172 ± 1.5
- SCNSIGTCTLFKLHSLLS — lower, 0.701 ± 0.51
- SCNVFGASWRLTVNDVWYKW — lower, 0.651 ± 0.22
- SCNYWCERVQGNSLWVGWVH — lower, -0.126 ± 0.35

In the case of RSTISGWR, the amyloid nucleation score is reported as “inactive”.
With RSVCYIKNPVVAREFLVLSA the amyloid nucleation score was “inactive”.
With RSWVCSSGLMVLRWNGRSYF the amyloid nucleation score was “inactive”.
With RTRFTDASMVWDANFMSNLY the amyloid nucleation score was “inactive”.
With SCILS the amyloid nucleation score was “inactive”.
